First the molecules themselves.
B1: NEMOwDcc (designed binder)
chain: GSWSVKELEDKNEELLSEIAHLKNEVARLKKLLQRCLEENQELRDAIRQSNQILRERCEELLHFQASQREEKEFLMCKFQEARKLVERLGLEKLELEDKNEELLSEIAHLKNEVARLKKLVGER
B2: NEMOw (domain or fragment)
chain: GSWEQGAPETLQRCLEENQELRDAIRQSNQILRERCEELLHFQASQREEKEFLMCKFQEARKLVERLGLEKL
B3: 5′FAM-IKKβ_(KK/RR) (peptide, UniProt O14920 701-745, looked up)
chain: 5FAM-PARRSEELVAEAHNLCTLLENAIQDTVREQDQSFTALDWSWLQTE
modifications: not fully specified

No end group written: not given here. *: point of attachment. 5FAM = O=C1OC2(c3ccc(O)cc3Oc3cc(O)ccc32)c2ccc(C(=O)*)cc21

For data set [1], the target named is NEMOwNcc (UniProt Q9Y6K9). As to the kind of experiment: non-reducing SDS-PAGE.
Data set [2] addresses 5′FAM-IKKβ_(KK/RR) (UniProt O14920). As to the kind of experiment: fluorescence polarisation.
For data set [3], the target named is NEMOwCcc (UniProt Q9Y6K9). Description: non-reducing SDS-PAGE.
For data set [4], the target named is B3. As to the kind of experiment: fluorescence polarisation.
Data set [5] concerns the molecule itself. Description: non-reducing SDS-PAGE.
For data set [6], the target named is T1, GST-NEMO(1–196) (UniProt Q9Y6K9 1-196). As to the kind of experiment: fluorescence polarisation.
Data set [7] deals with B2. Description: fluorescence polarisation. A general note: In fluorescence polarisation assays a small probe gives low polarisation when free and higher when bound to something large.
For data set [8], the target named is T1, GST-NEMO(1–196). Description: fluorescence polarisation. The source holds these as a separate data set.

The term stoichiometry N denotes a count of units in the complex or per binding partner. The term Kd denotes the constant that tells how readily two partners part at equilibrium. A higher Kd goes with weaker binding. The term IC50 denotes the concentration needed to halve the response being measured.

In data set [1], “NEMOwNcc (from UniProt Q9Y6K9 51-112) (designed binder)” yielded a stoichiometry N of 2. The same molecule displayed a Kd in data set [2] of 980 nM.
As for “NEMOwCcc (from UniProt Q9Y6K9 44-112) (designed binder)”, the stoichiometry N in data set [3] was found to be 2. Moreover, the Kd in data set [2] is 150 nM.
B1 returned a Kd in data set [4] of 114 ± 3 nM.
B2: in data set [5], the “stoichiometry N” value stood at 2.
PARRSEELVAEAHNLCTLLENAIQDTVREQDQSFTALDWSWLQTE (peptide, UniProt O14920 701-745, looked up) [IKKβ_(KK/RR)] had an IC50 in data set [6] of 167 ± 3 nM.
For B3, the Kd in data set [7] is about 10 µM; in data set [8], 168 ± 4 nM.
